Results taken from PMC11164701.

Molecular target: CpxA^QTY (water-soluble QTY-code variant of the sensor histidine kinase CpxA), his-tagged (E. coli) (UniProt P0AE82)

B1: periplasmic protein CpxP (natural protein)
chain: AEVGSGDNWHPGEELTQRSTQSHMFDGISLTEHQRQQMRDLMQQARHEQPPVNVSELETMHRLVTAENFDENAVRAQAEKMANEQIARQVEMAKVRNQMYRLLTPEQQAVLNEKHQQRMEQLRDVTQWQKSSSLKLLSSSNSRSQ
- inhibition of the autokinase activity of CpxA^QTY (1 μM, 1 mM ATP, RT, 2 min, anti-pHis western blot) by different concentrations of CpxP; CpxP excess needed for inhibition by approximately half (fold (CpxP over kinase)): 10
